In PMC12901202:

What was measured:
Experiment in all cases: BLI; […]; 300 s association, 300 s dissociation; 10x kinetics buffer; […]; global fit, 1:1 model; […]
[1] = target: SARS-CoV-2 Wuhan-Hu-1 RBD, biotinylated (SARS-CoV-2) (UniProt P0DTC2)
[2] = target: SARS-CoV-2 XBB.1.5 RBD, biotinylated (SARS-CoV-2) (UniProt P0DTC2)
[3] = target: SARS-CoV-2 BA.2.86 RBD, biotinylated (SARS-CoV-2) (UniProt P0DTC2)
[4] = target: SARS-CoV-2 BA.2.12.1 RBD, biotinylated (SARS-CoV-2) (UniProt P0DTC2)
[5] = target: SARS-CoV-2 BQ.1.1 RBD, biotinylated (SARS-CoV-2) (UniProt P0DTC2)
[6] = target: SARS-CoV-2 BA.5 RBD, biotinylated (SARS-CoV-2) (UniProt P0DTC2)
[7] = target: SARS-CoV-2 BA.2.75.2 RBD, biotinylated (SARS-CoV-2) (UniProt P0DTC2)
[8] = target: SARS-CoV-2 Delta RBD, biotinylated (SARS-CoV-2) (UniProt P0DTC2)

In the case of “TRI2-2 homotrimeric miniprotein inhibitor (designed binder)”, the Kd [1] is reported as 0.00121 nM, the koff [1] is reported as 3.46e-07 s⁻¹ and the kon [1] is reported as 286000 M⁻¹ s⁻¹. The Kd [2] was 0.658 nM, the koff [2] was 0.000105 s⁻¹ and the kon [2] was 160000 M⁻¹ s⁻¹. The Kd [3] was 0.388 nM, the koff [3] was 0.000131 s⁻¹ and the kon [3] was 339000 M⁻¹ s⁻¹. The Kd [4] was 0.851 nM, the koff [4] was 0.000117 s⁻¹ and the kon [4] was 137000 M⁻¹ s⁻¹. It also gave a Kd [5] of 0.21 nM, a koff [5] of 3.36e-05 s⁻¹ and a kon [5] of 160000 M⁻¹ s⁻¹. The Kd [6] was 0.0306 nM, the koff [6] was 9.92e-06 s⁻¹ and the kon [6] was 325000 M⁻¹ s⁻¹. The Kd [7] was 0.542 nM, the koff [7] was 8.93e-05 s⁻¹ and the kon [7] was 165000 M⁻¹ s⁻¹. The Kd [8] was 0.00114 nM, the koff [8] was 2.95e-07 s⁻¹ and the kon [8] was 259000 M⁻¹ s⁻¹.
